According to paper PMC12775136, “Mechanistic insights into recruitment and regulation of the RNA helicase UPF1 in replication-dependent histone mRNA decay”:

Tests used:
3'hExofl (ERI1) [1] = target: T1, 3'hExofl (ERI1) (human, UniProt Q8IV48 1-349); experiment: fluorescence anisotropy; 0.5 mM EDTA, no Mg2+; Kd shown only in figure; Fluorescence anisotropy: 20 mM HEPES pH 7.5, 100 mM NaCl, 0.5 mM EDTA, 100 ug/ml BSA; 30 min at room temperature, read at 25 C; one-site fit with Hill slope, n=3; settings: protein: recombinant, tags: 6xHis, HRV-3C site (N-terminal), label: 5' 6-FAM, hairpin
T1 sequence: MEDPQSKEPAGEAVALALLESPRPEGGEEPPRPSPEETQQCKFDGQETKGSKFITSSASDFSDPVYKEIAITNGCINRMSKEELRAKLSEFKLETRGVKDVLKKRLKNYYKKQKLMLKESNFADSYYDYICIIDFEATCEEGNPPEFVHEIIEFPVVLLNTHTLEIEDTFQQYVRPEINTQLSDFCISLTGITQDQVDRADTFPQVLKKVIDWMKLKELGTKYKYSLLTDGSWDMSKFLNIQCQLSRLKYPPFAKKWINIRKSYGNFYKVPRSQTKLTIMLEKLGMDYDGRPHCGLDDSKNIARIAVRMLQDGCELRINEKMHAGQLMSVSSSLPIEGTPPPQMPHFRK

SLBPfl = SLBPfl (human, UniProt Q14493 1-270); experiment: fluorescence anisotropy; 0.5 mM EDTA; Fluorescence anisotropy: 20 mM HEPES pH 7.5, 100 mM NaCl, 0.5 mM EDTA, 100 ug/ml BSA; 30 min at room temperature, read at 25 C; one-site fit with Hill slope, n=3; settings: protein: recombinant, tags: 6xHis-TEV (N-terminal), label: 5' 6-FAM
UPF1-CHh = target: T2, UPF1-CHh (human, UniProt Q92900-2 115-914); experiment: cryoEM structure (3.6 A); no ATP; Zn2+; Fluorescence anisotropy: 20 mM HEPES pH 7.5, 100 mM NaCl, 0.5 mM EDTA, 100 ug/ml BSA; 30 min at room temperature, read at 25 C; one-site fit with Hill slope, n=3; settings: protein: recombinant; tags: 6xHis; hairpin with 5' single-stranded U12 extension
T2 sequence: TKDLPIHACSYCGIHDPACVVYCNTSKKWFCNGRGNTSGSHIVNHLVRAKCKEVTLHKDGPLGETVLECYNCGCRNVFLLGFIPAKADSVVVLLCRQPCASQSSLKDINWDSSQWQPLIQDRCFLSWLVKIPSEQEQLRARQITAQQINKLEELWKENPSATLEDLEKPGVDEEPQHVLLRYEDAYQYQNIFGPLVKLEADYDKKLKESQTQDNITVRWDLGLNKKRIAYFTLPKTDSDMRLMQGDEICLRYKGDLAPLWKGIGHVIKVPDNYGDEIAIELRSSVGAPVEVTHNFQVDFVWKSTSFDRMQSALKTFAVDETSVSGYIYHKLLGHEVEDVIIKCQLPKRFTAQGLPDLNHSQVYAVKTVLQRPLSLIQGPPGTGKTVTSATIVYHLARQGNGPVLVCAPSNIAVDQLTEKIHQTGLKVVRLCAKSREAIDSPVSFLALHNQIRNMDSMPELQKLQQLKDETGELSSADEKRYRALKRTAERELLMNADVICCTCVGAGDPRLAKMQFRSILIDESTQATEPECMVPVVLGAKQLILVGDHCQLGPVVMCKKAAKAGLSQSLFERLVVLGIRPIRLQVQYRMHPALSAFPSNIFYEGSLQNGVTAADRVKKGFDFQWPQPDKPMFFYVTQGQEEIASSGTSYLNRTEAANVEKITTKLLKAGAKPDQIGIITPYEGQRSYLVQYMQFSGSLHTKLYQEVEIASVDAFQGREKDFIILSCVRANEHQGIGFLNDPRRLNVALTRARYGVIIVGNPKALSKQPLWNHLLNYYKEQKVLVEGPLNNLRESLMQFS

UPF1-Hel;SLBP-N [2] = target: T3, UPF1-Hel;SLBP-N (human;human, UniProt Q92900-2;Q14493 295-914;1-198, |); experiment: preparative SEC; ternary complex reconstituted for crosslinking MS; Fluorescence anisotropy: 20 mM HEPES pH 7.5, 100 mM NaCl, 0.5 mM EDTA, 100 ug/ml BSA; 30 min at room temperature, read at 25 C; one-site fit with Hill slope, n=3; settings: protein: recombinant;recombinant; tags: 6xHis;6xHis-TEV; copies: 1;1; hairpin with 5' single-stranded U12 extension
3'hExofl (ERI1) [3] = target: T1, 3'hExofl (ERI1); experiment: fluorescence anisotropy; 0.5 mM EDTA, no Mg2+; affinity comparable to SL26 and SL24; Kd shown only in figure; Fluorescence anisotropy: 20 mM HEPES pH 7.5, 100 mM NaCl, 0.5 mM EDTA, 100 ug/ml BSA; 30 min at room temperature, read at 25 C; one-site fit with Hill slope, n=3; settings: protein: recombinant; tags: 6xHis, HRV-3C site (N-terminal); label: 5' 6-FAM; partial hairpin; 3' arm lacks last 2 stem nt
UPF1-Hel;SLBP-N [4] = target: T3, UPF1-Hel;SLBP-N; experiment: analytical SEC; stable UPF1-SLBP complex only with SL26; Fluorescence anisotropy: 20 mM HEPES pH 7.5, 100 mM NaCl, 0.5 mM EDTA, 100 ug/ml BSA; 30 min at room temperature, read at 25 C; one-site fit with Hill slope, n=3; settings: protein: recombinant;recombinant; tags: 6xHis;6xHis-TEV; copies: 1;1; hairpin, 6 bp stem, 4 nt loop

## CCAAAGGCUCUUUUCAGAGCCACCCA (structured_RNA) [6-FAM-SL26]
3'hExofl (ERI1) [1]; 6 bp stem, 4 nt loop
  binding result: binds
SLBPfl; hairpin, 6 bp stem, 4 nt loop
  Kd: ~6 nM

## UUUUUUUUUUUUCCAAAGGCUCUUUUCAGAGCCACCCA (structured_RNA) [U-SL (12U-26SL)]
UPF1-CHh
  binding result: binds
UPF1-Hel;SLBP-N [2]
  binding result: binds

## CCAAAGGCUCUUUUCAGAG (structured_RNA) [6-FAM-SL19]
3'hExofl (ERI1) [3]
  binding result: binds
SLBPfl; partial hairpin, 3' arm lacks last 2 stem nt
  Kd: ~500 nM

## CCAAAGGCUCUUUUCAGAGCCACU (structured_RNA) [6-FAM-SL24]
3'hExofl (ERI1) [1]; intact 6 bp stem
  binding result: binds
SLBPfl; hairpin, intact 6 bp stem
  Kd: ~7 nM

## CCAAAGGCUCUUUUCAGAGCCACCCA (structured_RNA) [SL26 RNA (SEC)]
UPF1-Hel;SLBP-N [4]
  binding result: binds
